{"source": "ChEMBL document CHEMBL1268867", "about": "“ATPases as drug targets: insights from heat shock proteins 70 and 90” (J Med Chem, 2010)", "proteins": {"B1": {"name": "RAC-beta serine/threonine-protein kinase (Homo sapiens), P31751 (protein)", "chain": "MNEVSVIKEGWLHKRGEYIKTWRPRYFLLKSDGSFIGYKERPEAPDQTLPPLNNFSVAECQLMKTERPRPNTFVIRCLQWTTVIERTFHVDSPDEREEWMRAIQMVANSLKQRAPGEDPMDYKCGSPSDSSTTEEMEVAVSKARAKVTMNDFDYLKLLGKGTFGKVILVREKATGRYYAMKILRKEVIIAKDEVAHTVTESRVLQNTRHPFLTALKYAFQTHDRLCFVMEYANGGELFFHLSRERVFTEERARFYGAEIVSALEYLHSRDVVYRDIKLENLMLDKDGHIKITDFGLCKEGISDGATMKTFCGTPEYLAPEVLEDNDYGRAVDWWGLGVVMYEMMCGRLPFYNQDHERLFELILMEEIRFPRTLSPEAKSLLAGLLKKDPKQRLGGGPSDAKEVMEHRFFLSINWQDVVQKKLLPPFKPQVTSEVDTRYFDDEFTAQSITITPPDRYDSLGLLELDQRTHFPQFSYSASIRE"}, "B2": {"name": "Aurora kinase B (Homo sapiens), Q96GD4 (protein)", "chain": "MAQKENSYPWPYGRQTAPSGLSTLPQRVLRKEPVTPSALVLMSRSNVQPTAAPGQKVMENSSGTPDILTRHFTIDDFEIGRPLGKGKFGNVYLAREKKSHFIVALKVLFKSQIEKEGVEHQLRREIEIQAHLHHPNILRLYNYFYDRRRIYLILEYAPRGELYKELQKSCTFDEQRTATIMEELADALMYCHGKKVIHRDIKPENLLLGLKGELKIADFGWSVHAPSLRRKTMCGTLDYLPPEMIEGRMHNEKVDLWCIGVLCYELLVGNPPFESASHNETYRRIVKVDLKFPASVPMGAQDLISKLLRHNPSERLPLAQVSAHPWVRANSRRVLPPSALQSVA"}, "B3": {"name": "Serine/threonine-protein kinase Chk1 (Homo sapiens), O14757 (protein)", "chain": "MAVPFVEDWDLVQTLGEGAYGEVQLAVNRVTEEAVAVKIVDMKRAVDCPENIKKEICINKMLNHENVVKFYGHRREGNIQYLFLEYCSGGELFDRIEPDIGMPEPDAQRFFHQLMAGVVYLHGIGITHRDIKPENLLLDERDNLKISDFGLATVFRYNNRERLLNKMCGTLPYVAPELLKRREFHAEPVDVWSCGIVLTAMLAGELPWDQPSDSCQEYSDWKEKKTYLNPWKKIDSAPLALLHKILVENPSARITIPDIKKDRWYNKPLKKGAKRPRVTSGGVSESPSGFSKHIQSNLDFSPVNSASSEENVKYSSSQPEPRTGLSLWDTSPSYIDKLVQGISFSQPTCPDHMLLNSQLLGTPGSSQNPWQRLVKRMTRFFTKLDADKSYQCLKETCEKLGYQWKKSCMNQVTISTTDRRNNKLIFKVNLLEMDDKILVDFRLSKGDGLEFKRHFLKIKGKLIDIVSSQKIWLPAT"}}, "key": {"[1]": {"substrate": "Nc1ncnc2c1ncn2[C@@H]1O[C@H](COP(=O)(O)OP(=O)(O)OP(=O)(O)O)[C@@H](O)[C@H]1O", "assay": "Binding affinity to Akt2"}, "[2]": {"substrate": "Nc1ncnc2c1ncn2[C@@H]1O[C@H](COP(=O)(O)OP(=O)(O)OP(=O)(O)O)[C@@H](O)[C@H]1O", "assay": "Binding affinity to aurora B"}, "[3]": {"substrate": "Nc1ncnc2c1ncn2[C@@H]1O[C@H](COP(=O)(O)OP(=O)(O)OP(=O)(O)O)[C@@H](O)[C@H]1O", "assay": "Binding affinity to CHK1"}}}
{"protein": "B1", "values": [{"measurement": "Km", "setting": "[1]", "value": 254, "unit": "µM"}]}
{"protein": "B2", "values": [{"measurement": "Km", "setting": "[2]", "value": 34, "unit": "µM"}]}
{"protein": "B3", "values": [{"measurement": "Km", "setting": "[3]", "value": 1.4, "unit": "µM"}]}
